The values that follow come from publication PMC8344021, “Discovery of Small Molecule Bak Activator for Lung Cancer Therapy” (Theranostics, 2021).

In general, stoichiometry N refers to a count of units in the complex or per binding partner.

Several values for one entry are separate records, joined by “and”; a condition that tells them apart may be missing. Identical values can stand only once.

In the assay the target is T1, Bak (endogenous, mitochondria of A549 cells) (human (endogenous in A549)), Q16611.
T1 chain: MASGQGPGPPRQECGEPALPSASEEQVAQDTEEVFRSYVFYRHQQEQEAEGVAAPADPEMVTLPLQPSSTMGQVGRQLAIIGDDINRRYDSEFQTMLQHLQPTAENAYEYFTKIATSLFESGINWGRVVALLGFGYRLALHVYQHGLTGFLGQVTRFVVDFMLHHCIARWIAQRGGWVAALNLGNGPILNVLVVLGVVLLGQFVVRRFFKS
Nature of the assay: cross-linking; A549 cells treated with BKA-073 (1 uM) for 24 h; mitochondrial fraction; 10 mM BMH in PBS pH 7.2 with 5 mM EDTA, 1 h at room temperature, quenched with DTT; SDS-PAGE and Western blot with a Bak antibody. The following applies: remark: other sources report otherwise. For orientation: Immunoblotting shows a protein as a band on a membrane.

B1: Bak (endogenous, mitochondria of A549 cells), Q16611 1-211 (natural protein)
chain: MASGQGPGPPRQECGEPALPSASEEQVAQDTEEVFRSYVFYRHQQEQEAEGVAAPADPEMVTLPLQPSSTMGQVGRQLAIIGDDINRRYDSEFQTMLQHLQPTAENAYEYFTKIATSLFESGINWGRVVALLGFGYRLALHVYQHGLTGFLGQVTRFVVDFMLHHCIARWIAQRGGWVAALNLGNGPILNVLVVLGVVLLGQFVVRRFFKS
For B1, the stoichiometry N is 2 and 3.
